This note sets out measurements from patent US20220088221A1, “SELF-ASSEMBLED PEPTIDE NANOPARTICLE AND USE THEREOF” (THE METHODIST HOSPITAL, priority 2019, published 2022).

“Also recorded” adds a separate entry of the source. Read-outs that look alike come from different tables or passages of the source.

A short description of this series: Self-assembly and size of CPP-peptide/TLR ligand nanoparticles (DLS, AFM). Type of series: physicochemical. How it is done: FIG. 3A-1, FIG. 3A-2, FIG. 3B-1, FIG. 3B-2, FIG. 3C-1 and FIG. 3C-2 show self-assembled nanoparticles of TAT-TRP2 with CpG and MPLA (CM for short). […] AFM analysis indicates the size of cross section of the nanoparticle;
Grey bars indicate unstable/polydispersed complex with large PDI (PDI>0.5);
While both CPP-antigen peptide (10 mM) and CpG (10 mM) were soluble in PBS, but once mixed (1:1), precipitations or aggregates were observed. These aggregates were round nanoparticles, with a diameter of […] in size. The self-assembly was believed to occur through electric interaction of positively charged CPPs with negatively charged molecules, as well as hydrophobic interaction between the peptides themselves and monophosphoryl lipid A (MPLA).
MPLA and poly I:C were completely dissolved in sterile ultrapure water at a concentration of 1 mg/mL. To prepare the TAT-peptide vaccine nanoparticles, CpG, MPLA, and poly I:C of indicated volume (shown in Table 3) were mix thoroughly in ultrapure water or buffer by intensive vortex.
Self-assembly of the TAT-peptide nanoparticles was triggered by dropwise addition of TAT-peptide with ultrasonication in iced water bath within 1 min. […] The hydrophobic C-terminus of TRP2 peptide forms a hydrophobic core together with the MPLA via hydrophobic interactions.
Grey bars indicate unstable/polydispersed complexes with large PDI (PDI>0.5).

Take SYVDFFVWL [TRP2 peptide]: the “complex / nanoparticle formation with CpG and MPLA (AFM)” value (shortened to “complex / nanoparticle formation”) was “failed to form complex with CpG-MPLA and formed long fibers; also recorded: failed to form complexes”. Also, the “complex / nanoparticle formation” value (listed as TRP2) was “could not form a particle”.
As to YGRKKRRQRRRSYVDFFVWL [TAT-TRP2], the “complex / nanoparticle formation” value is “formed tight complexes”.
